Assay: soluble on expression in E. coli; label from the status in PepcDB or PDB records

Sequence	soluble on expression in E. coli
MILTITYTQPPATDLGYLLHKNPSRPQTFELNHGKAHIFYPEATSERCTVALLLDIDPIDLARGKKGSSGEGGLFDYVNDRPYVSSSFMSVAISRVFGTAMSGKCKEKPELAAIKLPLKAKIMMLPCKGGEEIIYRLFEPLGYKVDVEGYMLDEKFPEWGKSRYYTVSLEGEVRVRDLLNHIYVLIPVLDSEKHYWVGEDEIDKLFQHGEGWLVDHPEKELITGRYLIRKKRLVNQALKRLLEASDVVDDENEDDEPLKNEETEKKLNLNQQRLGTVVAVLKSVNAKKVIDLGCGEGNLLSLLLKDKSFEQITGVDVSYSVLERAKDRLKIDRLPEMQRKRISLFQSSLVYRDKRFSGYDAATVIEVIEHLDENRLQAFEKVLFEFTRPQTVIVSTPNKEYNFHYQNLFEGNLRHRDHRFEWTRKEFETWAVKVAEKYGYSVRFLQIGEIDDEFGSPTQMGVFTL	not soluble
MINARGETMARFTVVIPYYQKQHGVLGRALASVFAQTYQDFDLVIVDDESPYPIDQELAEISQEQKDRIVVIKQANAGPGGARNTGLDHVPDGTDYVAFLDSDDMWTPDHLRNAAFALNTYGGECYWASMQASDEFYYHFAISELEKNEGAARLSEKPLVIELPDLASVMLRNWSFLHLSCMVIGRPLFEKIRFDPALRLAAEDVLFFCDSILASKRTLLCDDAGAMRGMGVNIFHSIDNTSPEFLRQQFNTWVALDTLEGRFSRRPADVASIASYKNTARKQALWSQAGNLKRRRAPQFGLLFKWAMRDPALLRAAFELGAGKIVRSRLEHHHHHH	not soluble
MINIAVDNSIKITIETTVNAPIDMVWEAWTEPEHIKSWNHASDDWHTTEAKNDLRVGGRFVSKMEAKDGSFGFDFGGTYNKVRLYEFISYIMDDDRSVEITFKPEKDKTYIVESFEAEKSNPIDLQQKGWQAILDNFKKYVEENKLRGREKLEHHHHHH	soluble
MINITSMRDSFGDWAEKFLKSKEADGVSVSQLNSYKNYCRNHLSPLYMKSLSEILPADIQSIINETKLAKNTLKAIRNTASQIFRLAIENRAIDFNPADYVRIPKIAPEFHRDALEHHHHHH	soluble
MINLTSIASSLARVALSDSTKPTIDRALNVVSHIAGKVALQVNSSLLEQKGRLNERQQKGLAVILDALRGKEPVTNVETHEGGGRFNLARAAFDVASVVWERDKSMHNVMSFLGVSDSQGKMLFSLGKKLADAMAKPEPGYGKHNSEANYAFFSSNLKLNKLMSDIADQLINEIRQSNTDRVRRPTPGPSWRPESAQQQARPQTPPRTRPQANSTPPPPKAKPNAGAKRPSTQRPHNTPAADASSKVGDSGPAKPPVKPLYEHLGLSDMTADLSAVKTAYKKAALKNHPDKNAGNVAEATERFKVISNAFKILSDPELRKKYDNGLINEKGDEVQV	not soluble
MINRKIGFIGAGKMGSALMQGIIKAGIVQPENIGASDVYEPFLKELQTKLGIRVSTDNTVIVRESDILILAVKPQTLGSVLENLKNEITSEKLVISIAAGVPLSTYEGALLEGTRVVRVMPNIAATVSEAASGISPGKNATPEDMKDALTIFSAVGTAVQVPESLMDAVTGLSGSGPAFIFPVIEAMADGAVLEGMDRKSALTLAAQTVLGAAKMALETGMHPGELKDMVTSPAGTTIQGVHALEEAGIRAAFMNAVIRASERSRELGKKAAALEHHHHHH	soluble
MINSSMQFDRILASQPGISLIAEKRITRSASYFPDHFPKRPVLPMTVLLECKLNLAKEFIARAKYDRAYRISELRKIKMNEFVHPGDVVVCQVKVKQQMDDELILSYRCEVDGKRVCVVDIVLIPKGKLEHHHHHH	not soluble
MIPDDEFIKNPSVPGPTAMEVRCLIMCLAEPGKNDVAVDVGCGTGGVTLELAGRVRRVYAIDRNPEAISTTEMNLQRHGLGDNVTLMEGDAPEALCKIPDIDIAVVGGSGGELQEILRIIKDKLKPGGRIIVTAILLETKFEAMECLRDLGFDVNITELNIARGRALDRGTMMVSRNPVALIYTGVSHENKD	soluble
MIPIERHQKILALVAERGVVSIAELTERLGVSHMTIRRDVQKLEEQGAVLSVSGGVRSTQRLAIEPSHQDKTMMFSRQKQAIGTSAALHIPRNSCIYLDAGTTTLALARQLEDRDDLLVVTNDFVIANFLIESSQCRMIHSGGTLCRKNRSCIGEAAAHSLRNLSIDIAFISASCWGLRGISTPDEDKVPVKRAISEASSKRVLLADASKYGKVATYLALPLTAFDVVITDNSLSSTVYEELAEKALELIIASPPR	not soluble
MIPNFRGFNKKTKKMYSIDGFKSSERKIYRCSLADDEFRSGRLETFHFVEDNLVEKCNRPPERFYRQKQVRKSDRRLMARQ	not soluble
MIPPSSPREDGVDGLPKEAVGAEQPPSPASTSSQESKLQKLKRSLSFKTKSLRSKSADNFFQRTNSEDMKLQAHMVAEISPSSSPLPAPGSLTSTPARAGLHPGGKAHAFHEYIFKKPTFCDVCNHMIVGTNAKHGLRCKACKMSIHHKCTDGLAPQRCMGKLPKGFRRYYSSPLLIHEQFGCIKEVMPIACGNKVDPVYETLRFGTSLAQRTKKGSSGSGSDSPHRTSTSDLVEVPEEANGPGGGYDLRKRSNSVFTYPENGTDDFRDPAKNINHQGSLSKDPLQMNTYVALYKFVPQENEDLEMRPGDIITLLEDSNEDWWKGKIQDRIGFFPANFVQRLQQNEKIFRCVRTFIGCKEQGQITLKENQICVSSEEEQDGFIRVLSGKKKGLIPLDVLENI	soluble
MIPTTATVDDEPGQIKRALIDASAGAISGGVSRSVTSPLDVIKIRFQVQLEPTTSWGLVRGNLSGASKYTGMVQATKDIFREEGFRGFWRGNVPALLMVMPYTSIQFTVLHKLKSFASGSTKTEDHIHLSPYLSFVSGALAGCAATLGSYPFDLLRTILASQGEPKVYPTMRSAFVDIIQSRGIRGLYNGLTPTLVEIVPYAGLQFGTYDMFKRWMMDWNRYKLSSKIPINVDTNLSSFQLFICGLGAGTSAKLVCHPLDVVKKRFQIEGLQRHPRYGARVERRAYRNMLDGLRQIMISEGWHGLYKGIVPSTVKAAPAGAVTFVAYEFTSDWLESISW	soluble
MIPVVYSNLCPVCGGDLESKEIEKHVCFRKKRSLCLFPEDFLLKEFVEFFRKCVGEPRAIQKMWAKRILRKESFAATAPTGVGKTSFGLAMSLFLALKGKRCYVIFPTSLLVIQAAETIRKYAEKAGVGTENLIGYYHGRIPKREKENFMQNLRNFKIVITTTQFLSKHYRELGHFDFIFVDDVDAILKASKNVDKLLHLLGFHYDLKTKSWVGEARGCLMVSTATAKKGKKAELFRQLLNFDIGSSRITVRNVEDVAVNDESISTLSSILEKLGTGGIIYARTGEEAEEIYESLKNKFRIGIVTATKKGDYEKFVEGEIDHLIGTAHYYGTLVRGLDLPERIRFAVFVGCPSFRVTIEDIDSLSPQMVKLLAYLYRNVDEIERLLPAVERHIDEVREILKKVMGKERPQAKDVVVREGEVIFPDLRTYIQGSGRTSRLFAGGLTKGASFLLEDDSELLSAFIERAKLYDIEFKSIDEVDFEKLSRELDESRDRYRRRQEFDLIKPALFIVESPTKARQISRFFGKPSVKVLDGAVVYEIPMQKYVLMVTASIGHVVDLITNRGFHGVLVNGRFVPVYASIKRCRDCGYQFTEDRESCPKCGSENVDNSRSRIEALRKLAHDAEFVIVGTDPDTEGEKIAWDLKNLLSGCGAVKRAEFHEVTRRAILEALESLRDVDENLVKAQVVRRIEDRWIGFVLSQKLWERFNNRNLSAGRAQTLVLGWIIDRFQESRERRKIAIVRDFDLVLEHDEEEFDLTIKLVEEREELRTPLPPYTTETMLSDANRILKFSVKQTMQIAQELFENGLITYHRTDSTRVSDVGQRIAKEYLGDDFVGREWGESGAHECIRPTRPLTRDDVQRLIQEGVLVVEGLRWEHFALYDLIFRRFMASQCRPFKVVVKKYSIEFDGKTAEEERIVRAEGRAYELYRAVWVKNELPTGTFRVKAEVKSVPKVLPFTQSEIIQMMKERGIGRPSTYATIVDRLFMRNYVVEKYGRMIPTKLGIDVFRFLVRRYAKFVSEDRTRDLESRMDAIERGELDYLKALEDMYAEIKSID	soluble
MIQDETLEREVADLVISTLNLDVSPESVDPEAPLYREGLGLDSIDILEIALVVSKRYGFQLRADNEDNVLEHHHHHH	not soluble
MIREKALEFHKNNFPGNGKIEVIPKVSLESREELTLAYTPGVAEPCKEIARDPGKVYEYTSKGNLVAVVSDGSRILGLGNIGPLAGLPVMEGKALLFKRFGGVDAFPIMIKEQEPNKFIDIVKAIAPTFGGINLEDIASPKCFYILERLREELDIPVFHDDQQGTAAVVLAGLLNALKVVGKKISEITLALFGAGAAGFATLRILTEAGVKPENVRVVELVNGKPRILTSDLDLEKLFPYRGWLLKKTNGENIEGGPQEALKDADVLISFTRPGPGVIKPQWIEKMNEDAIVFPLANPVPEILPEEAKKAGARIVATGRSDYPNQINNLLGFPGIFRGALDVRARTITDSMIIAAAKAIASIVEEPSEENIIPSPLNPIVYAREARAVAEEAMKEGVARTKVKGEWVEEHTIRLIEFYENVIAPINKKRREYSKAITRA	soluble
MIRILLSNDDGISAPGIQTLASALRGFAQVQIVAPDRNRSGASNALTLDSALRITTLSNGDIAVQQGTPTDCVYLGVNALMRPRPDIVVSGINAGPNLGDDVIYSGTVAAAMEGRHLGYPALAVSLNGHQHYDTAAAVTCRLLRALQRKPLRTGKILNINVPDLPLAEIKGIRVTRCGSRHPAEQVFCQQDPRGQDLYWIGPPGEKYDAGPDTDFAAVEQGYVSITPLQVDLTAYMAQEVVESWLANTEVDGEW	not soluble
MIRLTNIKLPLDHQEHELEQAILTKLSIKAVQLIKFTVFKRGYDARKKNSIFLIYTLDVETNVDEALLATFIADTQVKETPDMAYKFVSQAPKNLKNRPVVIGMGPCGLFVGLVLAQMGFNPIVLERGQEVRQRTKDTFGFWRKKILNTESNVQFGEGGAGTFSDGKLYSQVKDPKHYSRKVLHEFVAAGAPEEILYVSKPHIGTFKLVTMVEKMRAKIFELGGEVRFNQRVDKIHFTDVEGNECTAQGIEGYQNKKVTGLTLSNGDHIETNYIALAIGHSARDTFSMLFDEDVYMKAKPFSVGFRIEHEQAVIDEARFGNNAGNEILGSADYKLVHHCSNGRSVYSFCMCPGGTVVAAASEEGRLVTNGMSQYSRLERNANSAIVVGIEPEDFITSEFASDRDYVLAGMEFQRNLEAKAFKLGGESYDAPVQLVGDFLAGRKSGEHGSVAPSYKPGVTYCDLSETLPDYAIAAIREALPAFDKKIKGFSMAEATLTAVETRTSSPIQITRDKETLQSLNAQGLYPAGEGAGYAGGILSAGIDGIKIAEAMALAITAEQEHLEHHHHHH	not soluble
MIRVCNQIGIPYYAVNFEKQYYEKVFQYFLDEYKAGRTPNPDVLCNKEIKFKAFLEHALSLGADYLATGHYARVDRSGGKVRMLRGIDENKDQTYFLNQLTEDTLSKVMFPIGELQKSRVREIAKEAELATATKKDSTGICFIGERNFKTFLSQYLPAQPGDMMTMDGEVKGRHDGLMYYTIGQRHGLGIGGSGEPWFAVGKDLEKNILYVDQGFHNPLLYSDKITATNISWVRSDIMKGEEISCTAKFRYRQEDHKVTVRMTGEGEAEVIFDEQVRAVTPGQAVVFYDGEECLGGGTIDDVYKDGTKLWYV	not soluble
MIRVIFLDLDKTLLPEYDPEPAIPIVEELKKKGFEIVFNSSKTRAEQEYYREKLNVKGPFIVENGSAIYIPSNYFPFEVPGVKRGEYMVLELGVKVEEIRKALKELEAEYGLKYYGNSTDEEIEKFTKLPKHLIPLAKDREYSETIFLWKREGWEKDLIRKGFKVTMGSRFYAVHGNSDKGKAAKLLLDLYKRVDEVESYAVGDGENDFPMFDVVDFAFLIGDLRHENAENVTSIKDVLKKIAAALEHHHHHH	soluble
